Reference: article PMC8635971, “A nanocompartment system contributes to defense against oxidative stress in Mycobacterium tuberculosis” (eLife, 2021)

Biological target: the molecule itself
Assay: SDS-PAGE of unboiled (native state) samples

B1: unencapsulated (naked) DyP purified from E. coli (enzyme)
chain: MAVPAVSPQPILAPLTPAAIFLVATIGADGEATVHDALSKISGLVRAIGFRDPTKHLSVVVSIGSDAWDRLFAGPRPTELHPFVELTGPRHTAPATPGDLLFHIRAETMDVCFELAGRILKSMGDAVTVVDEVHGFRFFDNRDLLGFVDGTENPSGPIAIKATTIGDEDRNFAGSCYVHVQKYVHDMASWESLSVTEQERVIGRTKLDDIELDDNAKPANSHVALNVITDDDGTERKIVRHNMPFGEVGKGEYGTYFIGYSRTPTVTEQMLRNMFLGDPAGNTDRVLDFSTAVTGGLFFSPTIDFLDHPPPLPQAATPTLAAGSLSIGSLKGSPR
notes: dye-decolorizing peroxidase DyP, Rv0799c, Mycobacterium tuberculosis; Tetramer seen after addition of hemin; The methods say the SUMO tag was removed; the results call the protein SUMO-tagged; A tetramer of 144 kDa would fit an untagged monomer of about 36 kDa (surmise); also called free DyP; SUMO-tagged unencapsulated DyP
  stoichiometry N: 4
